# Source: article PMC10409785 (Nature Communications, 2023)
# T1: human Uba7 (human, UniProt P41226 1-1012, Cys599 crosslinked to UBE2L6 Cys86 (in the cryo-EM complexes only))
# T1 construct: also called hUba7; E1; source: E. coli BL21 codon plus or Hi5 insect cells (baculovirus), purified (Ni-NTA, Superdex 200, Enrich Q); not shown: His6 (insect cell construct), N-terminal, cleaved
# T1 sequence: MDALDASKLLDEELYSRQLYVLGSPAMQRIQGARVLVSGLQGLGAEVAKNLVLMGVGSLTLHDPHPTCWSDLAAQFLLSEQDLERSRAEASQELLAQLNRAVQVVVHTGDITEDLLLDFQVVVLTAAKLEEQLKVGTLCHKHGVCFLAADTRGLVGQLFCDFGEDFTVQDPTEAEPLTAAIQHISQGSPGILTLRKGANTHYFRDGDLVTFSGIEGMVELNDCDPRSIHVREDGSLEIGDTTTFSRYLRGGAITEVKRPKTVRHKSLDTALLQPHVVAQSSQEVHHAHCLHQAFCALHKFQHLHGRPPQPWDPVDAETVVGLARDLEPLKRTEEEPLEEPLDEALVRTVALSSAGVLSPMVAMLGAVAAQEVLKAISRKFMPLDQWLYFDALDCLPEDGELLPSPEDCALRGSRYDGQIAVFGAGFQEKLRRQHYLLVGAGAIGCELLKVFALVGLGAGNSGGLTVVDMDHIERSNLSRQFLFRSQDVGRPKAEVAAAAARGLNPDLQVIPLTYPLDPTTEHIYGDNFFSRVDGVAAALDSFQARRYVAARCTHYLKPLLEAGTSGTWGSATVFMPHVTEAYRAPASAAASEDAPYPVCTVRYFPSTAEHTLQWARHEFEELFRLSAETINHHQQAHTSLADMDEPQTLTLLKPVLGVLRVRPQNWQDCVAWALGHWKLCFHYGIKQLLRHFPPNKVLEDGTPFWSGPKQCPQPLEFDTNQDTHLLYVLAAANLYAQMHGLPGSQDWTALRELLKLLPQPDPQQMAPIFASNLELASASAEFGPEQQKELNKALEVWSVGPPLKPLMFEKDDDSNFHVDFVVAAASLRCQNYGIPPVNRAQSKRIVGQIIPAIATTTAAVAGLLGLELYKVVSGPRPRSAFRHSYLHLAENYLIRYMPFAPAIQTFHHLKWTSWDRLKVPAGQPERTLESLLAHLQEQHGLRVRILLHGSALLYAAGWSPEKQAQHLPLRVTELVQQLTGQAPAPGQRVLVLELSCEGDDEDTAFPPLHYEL
# B1: UBE2L6 (C98S/C102S/L121K) (enzyme, human)
# chain: MASMRVVKELEDLQKKPPPYLRNLSSDDANVLVWHALLLPDQPPYHLKAFNLRISFPPEYPFKPPMIKFTTKIYHPNVDENGQICLPIISSENWKPSTKTSQVLEALNVLVNRPNIREPKRMDLADLLTQNPELFRKNAEEFTLRFGVDRPS
# modifications: Lys121 (L121K) isopeptide-linked to Gly157 of ISG15 C76S; Cys86 activated with Aldrithiol-4 and crosslinked to Uba7 Cys599
# notes: The 6XHis-tag was cleaved with TEV protease 'when required'; source: E. coli BL21 codon plus, purified (Ni-NTA, Superdex 75, Enrich Q)
# Target: T1, human Uba7
# Assay: cryo-EM structure; double-loaded Uba7-UBE2L6-ISG15(t)/ISG15(a) mimetic: ISG15 C76S isopeptide-linked to UBE2L6 L121K, UBE2L6 Cys86 (Aldrithiol-4 activated) crosslinked to Uba7 Cys599, then 1.2 molar excess of ISG15, ATP and Mg2+ for 30 min at 4 °C; frozen at 3.0 mg/ml
# Conditions: both partners purified
binder,measurement,value
B1,binding result,binds
